According to the Human Domainome abundance scans (Beltran et al. 2025):
± gives the uncertainty stated by the source.

B1: Intersectin-1, residues 1156 to 1213; numbered along this chain, Q15811 (parent)
chain: AVCQVIGMYDYTAQNDDELAFNKGQIINVLNKEDPDWWKGEVNGQVGLFPSNYVKLTT

Variants of: B1
Assay: abundance fitness (aPCA) (normalised: wild type 0, dead -1); higher = more abundant; growth selection in yeast, the domain comes from the species named
Settings: Homo sapiens

Variant | abundance fitness
V2M | -0.205 ± 0.17
V2N | -0.223 ± 0.29
V2P | -0.222 ± 0.15
V2Q | -0.466 ± 0.23
V2R | -0.003 ± 0.095
V2S | -0.233 ± 0.14
V2T | -0.187 ± 0.16
V2W | -0.384 ± 0.19
V2Y | -0.264 ± 0.27
C3A | -0.463 ± 0.12
C3D | -0.033 ± 0.12
C3F | -0.155 ± 0.14
C3G | -0.308 ± 0.079
C3H | -0.706 ± 0.18
C3K | -0.597 ± 0.16
C3L | -0.387 ± 0.11
C3M | -0.094 ± 0.12
C3N | -0.252 ± 0.17
C3P | -0.901 ± 0.17
C3Q | -0.606 ± 0.16
C3R | -0.555 ± 0.1
C3S | -0.452 ± 0.1
C3T | -0.123 ± 0.12
C3V | -0.374 ± 0.094

Variant | abundance fitness
C3W | -0.449 ± 0.13
C3Y | -0.184 ± 0.091
Q4A | -0.826 ± 0.17
Q4C | -0.57 ± 0.19
Q4D | -1.15 ± 0.49
Q4E | -0.629 ± 0.17
Q4F | -0.719 ± 0.26
Q4G | -0.6 ± 0.12
Q4H | -0.373 ± 0.21
Q4I | -0.391 ± 0.28
Q4K | -0.236 ± 0.13
Q4L | -0.538 ± 0.12
Q4M | -0.527 ± 0.16
Q4P | -0.817 ± 0.17
Q4R | -0.354 ± 0.089
Q4S | -0.277 ± 0.1
Q4T | -0.207 ± 0.1
Q4V | -0.488 ± 0.13
Q4W | -0.451 ± 0.15
Q4Y | -0.487 ± 0.17
V5A | -0.045 ± 0.1
V5C | 0.005 ± 0.12
V5D | -0.711 ± 0.17
V5E | -0.843 ± 0.28

Variant | abundance fitness
V5F | -0.772 ± 0.19
V5G | -0.309 ± 0.096
V5H | -0.644 ± 0.32
V5I | -0.823 ± 0.16
V5K | -0.708 ± 0.18
V5L | -0.891 ± 0.15
V5M | -0.737 ± 0.17
V5N | -0.902 ± 0.19
V5P | -0.94 ± 0.18
V5Q | -0.673 ± 0.29
V5R | -0.831 ± 0.12
V5S | -0.813 ± 0.12
V5T | -0.526 ± 0.15
V5W | -0.574 ± 0.15
V5Y | -0.309 ± 0.14
I6A | -0.639 ± 0.17
I6C | -0.386 ± 0.13
I6D | -0.922 ± 0.25
I6E | -0.013 ± 0.12
I6F | -0.619 ± 0.17
I6G | -0.64 ± 0.12
I6K | -0.269 ± 0.2
I6L | -0.47 ± 0.1
I6M | -0.092 ± 0.15

Variant | abundance fitness
I6N | -0.765 ± 0.2
I6Q | -0.156 ± 0.17
I6R | -0.446 ± 0.1
I6S | -0.655 ± 0.11
I6T | -0.388 ± 0.11
I6V | 0.159 ± 0.1
I6W | -0.688 ± 0.2
I6Y | -0.548 ± 0.24
G7A | 0.54 ± 0.098
G7C | 0.176 ± 0.12
G7D | -0.721 ± 0.11
G7F | -0.739 ± 0.19
G7H | -0.466 ± 0.38
G7K | -0.772 ± 0.21
G7L | -0.618 ± 0.12
G7M | -0.681 ± 0.22
G7N | -1.15 ± 0.32
G7P | -0.519 ± 0.29
G7Q | -0.893 ± 0.24
G7R | -0.849 ± 0.11
G7S | 0.309 ± 0.083
G7V | -0.551 ± 0.093
G7W | -0.775 ± 0.15
G7Y | -1.13 ± 0.35

Variant | abundance fitness
M8A | 0.209 ± 0.091
M8C | -0.02 ± 0.14
M8D | -0.67 ± 0.18
M8E | 0.541 ± 0.12
M8F | -0.286 ± 0.17
M8G | -0.51 ± 0.087
M8H | -0.167 ± 0.2
M8I | 0.542 ± 0.16
M8L | 0.333 ± 0.09
M8N | -0.576 ± 0.21
M8P | -0.914 ± 0.19
M8Q | 0.31 ± 0.14
M8R | 0.145 ± 0.08
M8S | -0.233 ± 0.11
M8T | -0.002 ± 0.14
M8W | -0.3 ± 0.13
M8Y | -0.472 ± 0.21
Y9A | 0.362 ± 0.1
Y9C | 0.387 ± 0.12
Y9D | 0.196 ± 0.15
Y9E | 0.338 ± 0.12
Y9F | 0.259 ± 0.13
Y9G | -0.164 ± 0.088
Y9H | 0.278 ± 0.18

Variant | abundance fitness
Y9I | 0.431 ± 0.13
Y9K | 0.474 ± 0.15
Y9L | 0.263 ± 0.092
Y9N | 0.418 ± 0.15
Y9P | -0.835 ± 0.2
Y9Q | 0.535 ± 0.14
Y9R | 0.538 ± 0.074
Y9T | 0.257 ± 0.11
Y9V | 0.336 ± 0.086
D10A | -0.217 ± 0.1
D10C | -0.472 ± 0.16
D10F | -1.01 ± 0.44
D10G | -0.59 ± 0.1
D10H | -0.262 ± 0.31
D10I | -0.919 ± 0.24
D10L | -0.724 ± 0.16
D10M | 0.001 ± 0.31
D10N | -0.227 ± 0.098
D10P | -0.246 ± 0.15
D10Q | -0.625 ± 0.23
D10R | -0.335 ± 0.1
D10S | -0.093 ± 0.13
D10V | -0.661 ± 0.14
D10W | -0.507 ± 0.22

Variant | abundance fitness
D10Y | -0.838 ± 0.37
Y11C | -0.509 ± 0.17
Y11D | -0.928 ± 0.23
Y11E | -0.809 ± 0.21
Y11F | -0.271 ± 0.2
Y11G | -0.655 ± 0.097
Y11H | 0.077 ± 0.16
Y11I | -0.563 ± 0.2
Y11K | -0.879 ± 0.23
Y11L | -0.851 ± 0.13
Y11M | -0.698 ± 0.18
Y11N | -0.937 ± 0.29
Y11P | -0.759 ± 0.16
Y11Q | -0.692 ± 0.22
Y11R | -0.374 ± 0.084
Y11S | -0.769 ± 0.13
Y11T | -0.555 ± 0.19
Y11V | -0.765 ± 0.12
Y11W | -0.932 ± 0.17
T12A | -0.075 ± 0.092
T12C | -0.464 ± 0.16
T12D | -0.203 ± 0.11
T12F | -0.39 ± 0.19
